Test results as given in FireProtDB (doi:10.1021/bi00123a002).
Values joined by “and” are separate entries in the source; they are usually repeats but may differ in a detail not shown here. Identical values can stand only once.

Conditions: Salmonella typhimurium (strain LT2 / SGSC1412 / ATCC 700720), pH 7.8, 25 °C, Urea, CD, Potassium phosphate 10 mM, reversible: yes, whole UniProt chain shown

B1: Tryptophan synthase alpha chain wild type, P00929 (protein)
chain: MERYENLFAQLNDRREGAFVPFVTLGDPGIEQSLKIIDTLIDAGADALELGVPFSDPLADGPTIQNANLRAFAAGVTPAQCFEMLALIREKHPTIPIGLLMYANLVFNNGIDAFYARCEQVGVDSVLVADVPVEESAPFRQAALRHNIAPIFICPPNADDDLLRQVASYGRGYTYLLSRSGVTGAENRGALPLHHLIEKLKEYHAAPALQGFGISSPEQVSAAVRAGAAGAISGSAIVKIIEKNLASPKQMLAELRSFVSAMKAASRA
unfolding free energy: 13.2 kcal/mol
denaturant m value (transition: 3): 2.68 kcal/mol/M and 1.6 kcal/mol/M
denaturant midpoint (higher = more stable) (transition: 3): 2.75 M and 3.64 M
unfolding free energy (transition: 3): 7.35 kcal/mol and 5.81 kcal/mol
